Results reported in the supplement of paper PMC7125110.
± gives the standard error. Fewer inactive variants are shown than the library holds.

B1: glmS ribozyme (parent)
chain: AUAAAAGCGCCAGAACUACAGAAAUGUAGUUGACGAGGAGGAGGUUUAUCGAAUUUUCGGCGGAUGCCUCCAAA

What was measured:
Settings in all cases: with glucosamine-6-phosphate
glucosamine-6-phosphate [1] = variants of: B1; assay: self-cleavage kobs at 640 uM GlcN6P; higher = faster cleavage; RNA array
Outline: (§1)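 The measurements used barcoded ribozyme variants on sequenced MiSeq chips, transcribed in situ by E. coli RNA polymerase and tracked at 37 °C with a hybridised Cy3 probe. Glucosamine-6-phosphate, 40 μM to 10 mM in HEPES/KCl/Mg(OAc)2 buffer, was flowed in while tiles were imaged over ~14 h. Baseline-normalised signals, also normalised to non-cleaving reference variants, gave per-tile medians that were fit to one- or two-exponential decays for kobs. kcat and KM resulted from weighted Michaelis–Menten fits across concentrations.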

glucosamine-6-phosphate [2] = variants of: B1; assay: self-cleavage kobs at 2500 uM GlcN6P; higher = faster cleavage; RNA array
Outline: as §1

glucosamine-6-phosphate [3] = variants of: B1; assay: self-cleavage kobs at 10000 uM GlcN6P; higher = faster cleavage; RNA array
Outline: as §1

| Variant | self-cleavage kobs at 640 uM GlcN6P (glucosamine-6-phosphate [1]) [s⁻¹] | self-cleavage kobs at 2500 uM GlcN6P (glucosamine-6-phosphate [2]) [s⁻¹] | self-cleavage kobs at 10000 uM GlcN6P (glucosamine-6-phosphate [3]) [s⁻¹] |
| --- | --- | --- | --- |
| AUAAAAGCGCCAGAACUACAGAAAUGUAGUUGUCGAGGAGGAGGUUUAUCGAAAUUUCGCCGGAUGCCUCCAAA [A33U U54A G60C] | < 1e-05 | < 1e-05 |  |
| AUAAAAGCGCCAGAACUACAGAAAUGUAGUUGAAGAGGAGGAAGUUUAUCCAAUUGUCGGCGGAUGCCUCCAAA [C34A G43A G51C U56G] | < 1e-05 |  |  |
| AUAAAAGCGCCAGAACUACAGAAAUGUAGUUGACGUGGAGGAGGUUUAUCGAAUUAUCGGCGGAUGCCUCCAAA [A36U U56A] | < 1e-05 |  | < 1e-05 |
| AUAAAAGCGCCAGAACUACAGAAAUGUAGUUGACGAAGAGACGGUCUAUCGAAUUUUCGGCGGAUGCCUCCAAA [G37A G41A A42C U46C] | < 1e-05 |  |  |
| AUAAAAGCGCCAGAACUACAGAAAUGUAGUUGACGUGGAGGAGGUUUCUCGAAUUUUCGGCGGAUGGCUCCAAA [A36U A48C C67G] | < 1e-05 | < 1e-05 |  |
| AUAAAAGCGCCAGAACUACAGAAAUGUAGUUGACGAAGAGGAGGUUUAUCGAGUUUUCGGCGGGUGCCUCCAAA [G37A A53G A64G] | 0.000552 ± 9.7e-05 | 0.00103 ± 0.0003 | 0.00293 ± 0.0007 |
| AUAAAAGCGCCAGAACUACAGAAAUGUAGUUGACCAGGAGGAGGUUUAUCGAAUUUUCUGAGGAUGCCUCCAAA [G35C G59U C61A] | < 1e-05 |  |  |
| AUAAAAGCGCCAGAACUACAGAAAUGUAGUUGACGUGGAGGAGCUUUAUCGAAUUUUCGGUGGAUGCCUCAAAA [A36U G44C C61U C71A] | < 1e-05 |  |  |
| AUAAAAGCGCCAGAACUACAGAAAUGUAGUUGACGUGGAGGAGGUCUAACGAAUUUUCGGCGGAUGCGUCCAAA [A36U U46C U49A C68G] | < 1e-05 |  |  |
| AUAAAAGCGCCAGAACUACAGAAAUGUAGUUGACGACGAGGAGGUUUAUCGCAUUUUCGGCGGAUGCCUCCAAA [G37C A52C] | < 1e-05 | < 1e-05 | < 1e-05 |
| AUAAAAGCGCCAGAACUACAGAAAUGUAGUUGACAAGGAGGAGGUUUAUCGAACUUUCGGCGGCUGCCUCCAAA [G35A U54C A64C] | < 1e-05 |  |  |
| AUAAAAGCGCCAGAACUACAGAAAUGUAGUUGACGCGGAGGAGGUUUAUCGAAUUUUCGGCGAAUACCUCCAAA [A36C G63A G66A] | < 1e-05 |  |  |
| AUAAAAGCGCCAGAACUACAGAAAUGUAGUUGACGUGGAGGAGGUUUUUCGAAUUUUCGUCGGAUGCAUCCAAA [A36U A48U G60U C68A] | < 1e-05 | < 1e-05 |  |
| AUAAAAGCGCCAGAACUACAGAAAUGUAGUUGACGAAGAGGAGGUUUAUCGAAUUUUCGGCGUCUGCCUCCAAA [G37A G63U A64C] | < 1e-05 |  | < 1e-05 |
| AUAAAAGCGCCAGAACUACAGAAAUGUAGUUGAUGGGGAGGAGAUUUAUCGAAUUUUAGGCGGAUGCUUCCAAA [C34U A36G G44A C58A C68U] | < 1e-05 | < 1e-05 |  |
| AUAAAAGCGCCAGAACUACAGAAAUGUAGUUGACAAGGAGGAGGUGUAUCGAAUUUUCGGGGGAUGCCUCCAAA [G35A U46G C61G] | < 1e-05 | < 1e-05 | < 1e-05 |
| AUAAAAGCGCCAGAACUACAGAAAUGUAGUUGAUGAGGUGGAGGUUUAUCGAAUUUUCGGCGGAUGCCUCCAAA [C34U A39U] | < 1e-05 | < 1e-05 | < 1e-05 |
| AUAAAAGCGCCAGAACUACAGAAAUGUAGUUGAUGAGGAGGAGGUUUAUCGAAUUUUGGGCGGAGGCCUCCAAA [C34U C58G U65G] | < 1e-05 |  |  |
| AUAAAAGCGCCAGAACUACAGAAAUGUAGUUGACGAAGAGAAGGUUUAUCGAAUUUUCGGCGGAUGCCUUCAAA [G37A G41A C70U] | 0.00119 ± 0.00026 | 0.00206 ± 0.00053 |  |
| AUAAAAGCGCCAGAACUACAGAAAUGUAGUUGAAGAGGAGGAGGUUUACCGAAUUUUAGGCGGAUGCCUCCAAA [C34A U49C C58A] | < 1e-05 |  |  |
| AUAAAAGCGCCAGAACUACAGAAAUGUAGUUGACGAUGAGGAGGUUUAUCGAAUUUUUGGCGGAUGCCACCAAA [G37U C58U U69A] | 5.7e-05 ± 1.7e-05 |  |  |
| AUAAAAGCGCCAGAACUACAGAAAUGUAGUUGACCAGGACGAGGUUUAUCGAAUUUUCGCCGGAUGCCUCCAAA [G35C G40C G60C] | < 1e-05 |  |  |
| AUAAAAGCGCCAGAACUACAGAAAUGUAGUUGACAUGGAGAAGGUUUAUCGAAUUUUAGGCGGAUGCCUCCAAA [G35A A36U G41A C58A] | < 1e-05 | < 1e-05 |  |
| AUAAAAGCGCCAGAACUACAGAAAUGUAGUUGAAGAGGAGGCGGUUUAUCGAAUUUUCGGCGGAUGCCUACAAA [C34A A42C C70A] | < 1e-05 |  |  |

| Variant | self-cleavage kobs at 640 uM GlcN6P (glucosamine-6-phosphate [1]) [s⁻¹] | self-cleavage kobs at 2500 uM GlcN6P (glucosamine-6-phosphate [2]) [s⁻¹] | self-cleavage kobs at 10000 uM GlcN6P (glucosamine-6-phosphate [3]) [s⁻¹] |
| --- | --- | --- | --- |
| AUAAAAGCGCCAGAACUACAGAAAUGUAGUUGACGUGGUGGAGGCUUAUCGAAUUUUUGGCGGAUGCCUCCAAA [A36U A39U U45C C58U] | < 1e-05 | < 1e-05 |  |
| AUAAAAGCGCCAGAACUACAGAAAUGUAGUUGACGAUGUGGAGGUUUAUCGCAUUUUCAGCGGAUGCCUCCAAA [G37U A39U A52C G59A] | < 1e-05 |  |  |
| AUAAAAGCGCCAGAACUACAGAAAUGUAGUUGACGACGAGGAGGUUUAUCGAAUUUUCGGCUGAUGCUUCCAAA [G37C G62U C68U] | < 1e-05 | < 1e-05 |  |
| AUAAAAGCGCCAGAACUACAGAAAUGUAGUUGACGAAGAGCAGGUUUAUUGAAUUUUCGGCGGAGGCCUCCAAA [G37A G41C C50U U65G] | < 1e-05 | < 1e-05 |  |
| AUAAAAGCGCCAGAACUACAGAAAUGUAGUUGACUAGGAGGAGGUUUAUCGAAUUUGCGGCGGAUGCCUCAAAA [G35U U57G C71A] | < 1e-05 | < 1e-05 |  |
| AUAAAAGCGCCAGAACUACAGAAAUGUAGUUGACCAUGAGGAGGUUUAUCGAAUUUUCGGCGGAUGCCUCCAAA [G35C G37U] | < 1e-05 |  |  |
| AUAAAAGCGCCAGAACUACAGAAAUGUAGUUGUCGAGGAGGAGGUUUAUCGAAUCUUCGGCGGAUGCCUUCAAA [A33U U55C C70U] | < 1e-05 |  |  |
| AUAAAAGCGCCAGAACUACAGAAAUGUAGUUGACGUGGAGGAGGUUUAUCGAAUUUUCGGGGGAUGCCUACAAA [A36U C61G C70A] | 0.000101 ± 3e-05 |  |  |
| AUAAAAGCGCCAGAACUACAGAAAUGUAGUUGAUGAGGAGGACGUUUAUCGAAUUUUCGGCGGAUGCCUCCAAA [C34U G43C] | < 1e-05 |  |  |
| AUAAAAGCGCCAGAACUACAGAAAUGUAGUUGUCGAGGAGGAGGUUUAUCGAAUUUGCGGCGGAUGCGUCCAAA [A33U U57G C68G] | 0.000105 ± 2.8e-05 | 0.000205 ± 7e-05 |  |
| AUAAAAGCGCCAGAACUACAGAAAUGUAGUUGACCAGAAGGAGGUUUAUCGAAUUUUCGGCGGAUGCCUCCAAA [G35C G38A] | < 1e-05 | < 1e-05 |  |
| AUAAAAGCGCCAGAACUACAGAAAUGUAGUUGACGAAGAGAAGGUUUGUCGAAUUUUCGGCGGAUGCCUCCAAA [G37A G41A A48G] | < 1e-05 | < 1e-05 |  |
| AUAAAAGCGCCAGAACUACAGAAAUGUAGUUGACGCGAAGGAGGUUUAUCGAUUUUUCGGCGGAUGCGUCCAAA [A36C G38A A53U C68G] | 9.97e-05 ± 4.4e-05 |  |  |
| AUAAAAGCGCCAGAACUACAGAAAUGUAGUUGUCGAGGAUGAGGUUUAUCGUAUUUGCGGCGGAUGCCUCCAAA [A33U G40U A52U U57G] | < 1e-05 | < 1e-05 |  |
| AUAAAAGCGCCAGAACUACAGAAAUGUAGUUGACGCGGAGGAGGUUUAUCGAAUUUUCGGCGGAUGCCUGCAAA [A36C C70G] | 0.000124 ± 2.1e-05 |  |  |
| AUAAAAGCGCCAGAACUACAGAAAUGUAGUUGACCAGGCGGACGUUUAUCGAAUUAUCGGCGGAUGCCUCCAAA [G35C A39C G43C U56A] | < 1e-05 |  |  |
| AUAAAAGCGCCAGAACUACAGAAAUGUAGUUGAGGAGGAGGAGGUUUAUCGACUUUUCGGCGGCUGCCUCCAAA [C34G A53C A64C] | < 1e-05 |  |  |
| AUAAAAGCGCCAGAACUACAGAAAUGUAGUUGAUGAGGAGGAGGUUUAUCGAUUUUUCGGCGGAUGCCUGCAAA [C34U A53U C70G] | 0.000145 ± 4.1e-05 |  |  |
| AUAAAAGCGCCAGAACUACAGAAAUGUAGUUGACCAGGAGGAGGUUUAUCGAAUUUUCGGCGGAUGGCUCGAAA [G35C C67G C71G] | < 1e-05 |  |  |
| AUAAAAGCGCCAGAACUACAGAAAUGUAGUUGAUGAGGAGGAUGUUUAUCGAAUUUUCAGCCGAUGACUCCAAA [C34U G43U G59A G62C C67A] | < 1e-05 | < 1e-05 |  |
| AUAAAAGCGCCAGAACUACAGAAAUGUAGUUGAUGAGUAGGACGUUUAUCGAAUUUUCGGCGGAUGCCUCCAAA [C34U G38U G43C] | < 1e-05 |  |  |
| AUAAAAGCGCCAGAACUACAGAAAUGUAGUUGACCAUGAGGAGGUUUAUCGAAUUGUCGGCGGAUGCCUCCAAA [G35C G37U U56G] | < 1e-05 |  |  |
| AUAAAAGCGCCAGAACUACAGAAAUGUAGUUGACUAGGACGAGGUUUACCAAAUUUUCGGCGGAUGCCUCCAAA [G35U G40C U49C G51A] | < 1e-05 |  |  |
| AUAAAAGCGCCAGAACUACAGAAAUGUAGUUGAGGACGAGGAGGUUUAUCGAAUUUUCGGCGGAUGCCUCCAAA [C34G G37C] | < 1e-05 |  | < 1e-05 |
